According to FireProtDB (doi:10.1021/bi0115028):
Several values for one entry are separate records, joined by “and”; a condition that tells them apart may be missing. Identical values can stand only once.

Conditions: Bos taurus, 25 °C, NaCl 2 M, whole UniProt chain shown
[1] = pH 2.3, GdnHCl, Absorbance, H3PO4, NaOH
[2] = pH 2.3, GdnHCl, CD, H3PO4, NaOH
[3] = pH 6.2, GdnHCl, Absorbance, KH2PO4-Na2HPO4
[4] = pH 6.2, GdnHCl, CD, KH2PO4-Na2HPO4
[5] = pH 6.2, Urea, Absorbance, KH2PO4-Na2HPO4
[6] = pH 6.2, Urea, CD, KH2PO4-Na2HPO4
[7] = pH 8.3, GdnHCl, Absorbance, KHPO4-Na2HPO4/NaOH
[8] = pH 8.3, GdnHCl, CD, KHPO4-Na2HPO4/NaOH
[9] = pH 8.3, Urea, Absorbance, KHPO4-Na2HPO4/NaOH
[10] = pH 8.3, Urea, CD, KHPO4-Na2HPO4/NaOH

B1: Beta-lactoglobulin wild type, P02754 (protein)
chain: MKCLLLALALTCGAQALIVTQTMKGLDIQKVAGTWYSLAMAASDISLLDAQSAPLRVYVEELKPTPEGDLEILLQKWENGECAQKKIIAEKTKIPAVFKIDALNENKVLVLDTDYKKYLLFCMENSAEPEQSLACQCLVRTPEVDDEALEKFDKALKALPMHIRLSFNPTQLEEQCHI
In the case of B1, the denaturant m value [1] is reported as 3.9 kcal/mol/M, the “denaturant midpoint (higher = more stable)” value (“denaturant midpoint” below) [1] is reported as 3.4 M and the unfolding free energy [1] is reported as 13.4 kcal/mol. For the same protein, the denaturant m value [2] was 3.8 kcal/mol/M and 4.4 kcal/mol/M, the “denaturant midpoint” value [2] was 3.5 M and the unfolding free energy [2] was 13 kcal/mol and 15.2 kcal/mol. For the same protein, the denaturant m value [3] was 2.5 kcal/mol/M, the “denaturant midpoint” value [3] was 2.7 M and the unfolding free energy [3] was 8.4 kcal/mol. For the same protein, the denaturant m value [4] was 3.3 kcal/mol/M and 2.5 kcal/mol/M, the “denaturant midpoint” value [4] was 2.9 M and 2.7 M and the unfolding free energy [4] was 9.5 kcal/mol and 6.9 kcal/mol. The denaturant m value [5] was 0.9 kcal/mol/M, the “denaturant midpoint” value [5] was 4.1 M and the unfolding free energy [5] was 3.7 kcal/mol. For the same protein, the denaturant m value [6] was 0.7 kcal/mol/M and 0.6 kcal/mol/M, the “denaturant midpoint” value [6] was 3.5 M and 2.1 M and the unfolding free energy [6] was 2.3 kcal/mol and 1.4 kcal/mol. The denaturant m value [7] was 3.2 kcal/mol/M, the “denaturant midpoint” value [7] was 2.3 M and the unfolding free energy [7] was 7.6 kcal/mol. The denaturant m value [8] was 3 kcal/mol/M and 3.4 kcal/mol/M, the “denaturant midpoint” value [8] was 2 M and the unfolding free energy [8] was 5.9 kcal/mol and 6.9 kcal/mol. The denaturant m value [9] was 1.1 kcal/mol/M, the “denaturant midpoint” value [9] was 3.5 M and the unfolding free energy [9] was 4 kcal/mol. The denaturant m value [10] was 1.5 kcal/mol/M and 1.4 kcal/mol/M, the “denaturant midpoint” value [10] was 4.4 M and 3.6 M and the unfolding free energy [10] was 6.4 kcal/mol and 5 kcal/mol.
